Assay [1] has as its target T1, Tim3 (on Tim3-CHO cells) (UniProt Q8TDQ0 22-301, limits assumed).
T1 construct: whole, on cells
T1 sequence (looked up): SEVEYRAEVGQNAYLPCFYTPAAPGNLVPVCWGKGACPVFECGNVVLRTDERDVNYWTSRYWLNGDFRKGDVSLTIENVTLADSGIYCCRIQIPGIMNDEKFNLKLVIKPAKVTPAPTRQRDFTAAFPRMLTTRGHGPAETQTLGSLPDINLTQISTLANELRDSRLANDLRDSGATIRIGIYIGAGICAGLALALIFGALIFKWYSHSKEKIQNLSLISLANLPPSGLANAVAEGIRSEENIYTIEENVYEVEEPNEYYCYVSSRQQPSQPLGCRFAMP
Briefly: flow cytometry on Tim3-CHO cells, PE goat anti-human IgG Fc secondary; blank 0.2% in P3. Here is the method:
(§1) Cells (VISTA-CHO cells, Tim3-CHO cells or Lag3-CHO cells) in logarithmic phase were collected and centrifuged at 1500 rpm for 5 min, and the supernatant was removed. The cells were resuspended in 1×PBS and centrifuged at 1500 rpm for 5 min, and the supernatant was removed, and then the procedure was repeated once. […]
Background: A flow cytometer gives signals particle by particle.

For assay [2], the target named is T2, Lag3 (on Lag3-CHO cells) (UniProt P18627 23-525, limits assumed).
T2 construct: whole, on cells
T2 sequence (looked up): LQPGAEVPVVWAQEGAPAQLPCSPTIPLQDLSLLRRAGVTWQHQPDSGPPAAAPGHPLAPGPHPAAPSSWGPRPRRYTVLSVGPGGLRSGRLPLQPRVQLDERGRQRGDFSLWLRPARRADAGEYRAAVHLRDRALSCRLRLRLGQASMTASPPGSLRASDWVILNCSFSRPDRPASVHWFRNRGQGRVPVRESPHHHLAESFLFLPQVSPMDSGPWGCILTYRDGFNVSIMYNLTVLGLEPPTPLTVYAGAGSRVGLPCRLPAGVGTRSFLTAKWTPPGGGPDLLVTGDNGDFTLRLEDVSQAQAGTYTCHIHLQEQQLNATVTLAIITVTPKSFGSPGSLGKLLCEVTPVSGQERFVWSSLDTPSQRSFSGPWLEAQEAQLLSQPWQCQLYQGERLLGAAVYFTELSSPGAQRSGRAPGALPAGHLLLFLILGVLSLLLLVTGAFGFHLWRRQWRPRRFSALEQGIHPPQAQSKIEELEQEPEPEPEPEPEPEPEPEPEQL
As to the kind of experiment: flow cytometry on Lag3-CHO cells, PE goat anti-human IgG Fc secondary; blank 0.5% in P3. Here is the method: as §1

Assay [3] has as its target T3, VISTA (on VISTA-CHO cells) (UniProt Q9H7M9 33-311, limits assumed).
T3 construct: whole, on cells
T3 sequence (looked up): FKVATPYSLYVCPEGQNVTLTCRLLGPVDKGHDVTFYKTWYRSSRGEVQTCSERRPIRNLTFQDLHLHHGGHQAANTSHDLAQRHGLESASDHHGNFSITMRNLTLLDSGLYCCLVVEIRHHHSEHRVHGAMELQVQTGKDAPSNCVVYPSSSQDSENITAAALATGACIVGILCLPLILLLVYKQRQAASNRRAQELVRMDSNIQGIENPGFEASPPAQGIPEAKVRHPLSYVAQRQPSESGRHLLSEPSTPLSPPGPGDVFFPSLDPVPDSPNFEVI
Briefly: flow cytometry on VISTA-CHO cells, PE goat anti-human IgG Fc secondary; blank 0.1% in P3. Here is the method: as §1

Assay [4] concerns the target T4, B7-H3 on tumour cells (MDA-MB-468 cells, N87 cells) (UniProt Q5ZPR3 29-534, limits assumed).
T4 construct: whole, on cells
T4 sequence (looked up): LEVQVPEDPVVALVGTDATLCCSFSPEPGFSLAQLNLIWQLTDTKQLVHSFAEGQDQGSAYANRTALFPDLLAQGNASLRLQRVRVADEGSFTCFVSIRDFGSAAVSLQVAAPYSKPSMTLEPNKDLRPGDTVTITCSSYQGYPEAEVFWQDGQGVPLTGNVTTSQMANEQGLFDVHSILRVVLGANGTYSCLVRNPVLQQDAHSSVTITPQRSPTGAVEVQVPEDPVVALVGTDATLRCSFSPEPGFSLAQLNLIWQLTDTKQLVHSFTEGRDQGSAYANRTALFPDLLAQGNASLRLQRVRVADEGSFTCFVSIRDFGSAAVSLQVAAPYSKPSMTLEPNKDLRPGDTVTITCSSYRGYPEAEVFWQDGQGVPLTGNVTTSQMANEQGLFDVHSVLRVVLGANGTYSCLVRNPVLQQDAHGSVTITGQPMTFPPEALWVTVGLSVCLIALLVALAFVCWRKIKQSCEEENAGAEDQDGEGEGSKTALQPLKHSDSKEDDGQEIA
Briefly: flow cytometry on MDA-MB-468 cells, PE goat anti-human IgG Fc secondary; blank 0.9% in the positive gate. Here is the method:
MDA-MB-468 cells in logarithmic phase were collected and centrifuged at 1500 rpm for 5 min, and the supernatant was removed. The cells were resuspended in 1×PBS and centrifuged at 1500 rpm for 5 min, and the supernatant was removed, and then the procedure was repeated once. MDA-MB-468 cells were added to a V-bottom 96-well plate at 50 μL/well (200,000 cells) and centrifuged at 1500 rpm for 5 min, and PBS was discarded; the humanized antibody diluted in gradient (initial concentration of 100 nM, 3-fold gradient dilution, 1×PBS as the vehicle) was added at 100 μL/well; the cells were resuspended, and incubated on ice for 1 h; after the incubation was completed, the cells were centrifuged at 2000 rpm for 5 min, and the supernatant was removed; the cells were resuspended in 1×PBS added at 200 µL/well and centrifuged again and the supernatant was removed, and the procedure was repeated twice; a PE-labeled goat anti-human IgG Fc secondary antibody (Invitrogen, cat #12-4998-82, diluted with 1×PBS at 1:500) was added at 100 μL/well; the cells were resuspended, and incubated for 30 min on ice in the absence of light; after the incubation was completed, the cells were centrifuged at 2000 rpm for 5 min, and the supernatant was removed; the cells were resuspended in 1×PBS added at 200 μL/well and centrifuged again and the supernatant was removed, and the procedure was repeated twice; 1×PBS was then added at 200 μL/well to resuspend the cells; the detection was performed with a cytoflex flow cytometer (Beckman).

These results are taken from US20240400690A1 (BIO THERA SOLUTIONS, published 2024).

B1: control antibody M30-H1-L4 (antibody, human IgG1, kappa, V domains shown)
VH: QVQLVQSGAEVKKPGSSVKVSCKASGYTFTNYVMHWVRQAPGQGLEWMGYINPYNDDVKYNEKFKGRVTITADESTSTAYMELSSLRSEDTAVYYCARWGYYGSPLYYFDYWGQGTLVTVSS
VL: EIVLTQSPATLSLSPGERATLSCRASSRLIYMHWYQQKPGQAPRPLIYATSNLASGIPARFSGSGSGTDFTLTISSLEPEDFAVYYCQQWNSNPPTFGQGTKVEIKR
notes: Control anti-B7-H3 antibody; also called HIL4
As to B1, the “% of cells in gate P3 at 100 nM” value in assay [1] was 0.4%. For the same molecule, in assay [2], the “% of cells in gate P3 at 100 nM” value worked out at 0.3%. For the same molecule, the “% of cells in gate P3 at 100 nM” value in assay [3] was determined as 0.2%. In assay [4], the “% of cells in positive gate V1-R at 0.411 nM” value (from here on “% of cells … at 0.411 nM”) is 1.1%, the “% of cells in positive gate V1-R at 1.23 nM” value (shortened to “% of cells … at 1.23 nM”) amounted to 4%, the “% of cells in positive gate V1-R at 11.11 nM” value (shortened to “% of cells … at 11.11 nM”) was found to be 97.2% and the “% of cells in positive gate V1-R at 33.33 nM” value (“% of cells … at 33.33 nM” below) amounted to 98.8%. In addition, the “% of cells in positive gate V1-R at 100 nM” value in assay [4] amounted to 99.3%.

B2: antibody V2 (antibody, human IgG1, kappa, V domains shown)
VH: EVQLVQSGAEVKKSGESLKISCKASGYTFTDYDINWVRQMPGKGLEWIGWIFPGDDTTKYNEKFKGQVTLSADKSTNTAYMQWSSLKASDTAMYYCARSPSFDYWGQGTLVTVSS
VL: QIVLTQSPGTLSLSPGERATLSCSASSTIGFMYWYQQKPGQAPRRWIYDTSKLASGVPDRFSVSGSGTDYTLTISRLEPEDFAVYYCHQRSSYPTFGQGTKVEIKR
notes: Humanized from chimeric antibody M1; expressed in HEK293F cells; also called humanized antibody V2
B2: in assay [4], the “% of cells … at 0.411 nM” value came to 1.2%, the “% of cells … at 1.23 nM” value was 1.3%, the “% of cells … at 11.11 nM” value is 97.8% and the “% of cells … at 33.33 nM” value was found to be 99.7%.

B3: antibody V1 (antibody, human IgG1, kappa, V domains shown)
VH: EVQLVQSGAEVKKSGESLKISCKASGYTFTDYDINWVRQMPGKGLEWMGWIFPGDDTTKYNEKFKGQVTISADKSTNTAYLQWSSLKASDTAMYYCARSPSFDYWGQGTLVTVSS
VL: QIVLTQSPGTLSLSPGERATLSCSASSTIGFMYWYQQKPGQAPRRWIYDTSKLASGVPDRFSVSGSGTDYTLTISRLEPEDFAVYYCHQRSSYPTFGQGTKVEIKR
notes: Humanized from chimeric antibody M1; expressed in HEK293F cells; also called humanized antibody V1
In the case of B3, in assay [4], the “% of cells … at 0.411 nM” value is 1.4%, the “% of cells … at 1.23 nM” value turned out to be 8.6%, the “% of cells in positive gate V1-R at 3.7 nM” value (from here on “% of cells … at 3.7 nM”) was found to be 92.7% and the “% of cells … at 11.11 nM” value amounted to 99.5%. Besides, in assay [4], the “% of cells … at 33.33 nM” value was 99.6% and the “% of cells in positive gate V1-R at 100 nM” value is 99.7%.

B4: antibody V5 (antibody, human IgG1, kappa, V domains shown)
VH: QVQLVQSGAEVKKPGASVKVSCKASGYTFTDYDINWVRQAPGQRLEWIGWIFPGDDTTKYNEKFKGRATLTADKSASTAYMELSSLRSEDTAVYYCARSPSFDYWGQGTLVTVSS
VL: QIVLTQSPSSLSASVGDRVTITCSASSTIGFMYWYQQKPGKAPKRWIYDTSKLASGVPSRFSVSGSGTDYTLTISSLQPEDFATYYCHQRSSYPTFGQGTKVEIKR
notes: Humanized from chimeric antibody M1; expressed in HEK293F cells; also called humanized antibody V5
As for B4, in assay [4], the “% of cells … at 0.411 nM” value was 31.6%, the “% of cells … at 1.23 nM” value is 73.5%, the “% of cells … at 3.7 nM” value came out at 92.6% and the “% of cells … at 11.11 nM” value was 99.3%. For the same molecule, in assay [4], the “% of cells … at 33.33 nM” value is 99.6% and the “% of cells in positive gate V1-R at 100 nM” value is 99.7%.

B5: antibody M1 (antibody, human IgG1, kappa, V domains shown)
VH: QVQLQQSGPELVKPGASVRISCKASGYTFTDYDINWVQQRPGQGLEWIGWIFPGDDTTKYNEKFKGRATLTADKSSNTAYMQLNGLTSENSAVYFCARSPSFDYWGQGTLVTVSS
VL: QIVLTQSPAIMSASPGERVTMTCSASSTIGFMYWYQQKPGTSPKRWIYDTSKLASGVPARFSVSGSGTSYSLTISSMEAEDAATYYCHQRSSYPTFGGGTKLEIKR
notes: Chimeric antibody, murine variable regions on the IgG1 constant region; expressed in HEK293F cells; also called chimeric antibody M1
B5: the “% of cells in gate P3 at 100 nM” value in assay [1] came out at 0.8%. Also, in assay [2], the “% of cells in gate P3 at 100 nM” value is 0.9%. Besides, the “% of cells in gate P3 at 100 nM” value in assay [3] came to 0.6%. Further, in assay [4], the “% of cells … at 0.411 nM” value worked out at 26.5%, the “% of cells … at 1.23 nM” value worked out at 93.1%, the “% of cells … at 3.7 nM” value was found to be 98.7% and the “% of cells … at 11.11 nM” value is 99.5%. In assay [4], the “% of cells … at 33.33 nM” value came out at 99.7% and the “% of cells in positive gate V1-R at 100 nM” value was found to be 99.7%.
